Test in all cases: ELISA, biotinylated peptide on streptavidin plate
(In general: An ELISA detects its analyte on a solid surface through an enzyme-linked reagent.)

The target in assay [1] is RhD202.158E07.
The target of assay [2] is RhD162.119G12.
In assay [3] the target is RhD305.181E06.

Primed or numbered codes have the meaning given here. No end group written: not given here. Biotin′ = not defined here

Consider three molecules from patent US20080131882A1.

For CAPRNPYEC-{Biotin′} (cysteine pairing not given here) [PEP202], the signal-to-noise ratio in assay [1] stood at 10.
On to CMGYGPRMC-{Biotin′} (cysteine pairing not given here) [PEP162], for which, in assay [2], the signal-to-noise ratio turned out to be 10.
For the molecule CTTLLHFLC (coupled to Biotin at the C-terminus) [PEP305], in assay [3], the signal-to-noise ratio is 10.
